Measured values taken from patent US20190315847A1 (UNIVERSITY OF PITTSBURGH OF THE COMMONWEALTH SYSTEM OF …, published 2019).

Target: T1, insulin like growth factor 1 receptor (IGF1R) (human, UniProt P08069 31-736; P08069 741-1367)
T1 construct: Endogenous IGF1R in MCF-7 and T47D breast cancer cells; also called IGF1 receptor; IGFR1
Assay: in situ proximity ligation assay (Duolink), MCF-7 and T47D cells
Description: In situ proximity ligation assay (PLA) was used to analyze the direct interaction between IGF1R and E-cadherin in breast cancer cells. MCF-7 (FIG. 7A) and T47D (FIG. 7B) cells were plated on coverslips, fixed, and stained with IGF1R and E-cadherin antibody overnight. The Duolink (Sigma) protocol was followed and coverslips were imaged using confocal microscopy to reveal red puncta. MCF-7 cells transfected with anti-CDH1 siRNA (siCDH1; FIG. 7C) or anti-IGF1R siRNA (siIGF1R; FIG. 7D) were used as negative controls for the assay to assess primary antibody specificity. […] All puncta and nuclei in 60× images were counted. One-way ANOVA was used to determine significant difference between groups (p<0.05; one independent experiment, n=5 images per slide counted). Further, IGF1R (green; second column from left) and E-cadherin (red; third column from left) were analyzed for co-localization (merge; fourth column from left) by immunofluorescence staining in MCF-7 cells transfected with siSCR (FIG. 7J) or siCDH1 (FIG. 7K). […]
Cells were plated on coverslips and fixed in 4% paraformaldehyde for 30 minutes at 37° C. […] The ratio of puncta/nuclei for each experimental condition was calculated by counting all puncta and nuclei in five 60× images.

T1 sequence (P08069 31-736, chain 1 of 2): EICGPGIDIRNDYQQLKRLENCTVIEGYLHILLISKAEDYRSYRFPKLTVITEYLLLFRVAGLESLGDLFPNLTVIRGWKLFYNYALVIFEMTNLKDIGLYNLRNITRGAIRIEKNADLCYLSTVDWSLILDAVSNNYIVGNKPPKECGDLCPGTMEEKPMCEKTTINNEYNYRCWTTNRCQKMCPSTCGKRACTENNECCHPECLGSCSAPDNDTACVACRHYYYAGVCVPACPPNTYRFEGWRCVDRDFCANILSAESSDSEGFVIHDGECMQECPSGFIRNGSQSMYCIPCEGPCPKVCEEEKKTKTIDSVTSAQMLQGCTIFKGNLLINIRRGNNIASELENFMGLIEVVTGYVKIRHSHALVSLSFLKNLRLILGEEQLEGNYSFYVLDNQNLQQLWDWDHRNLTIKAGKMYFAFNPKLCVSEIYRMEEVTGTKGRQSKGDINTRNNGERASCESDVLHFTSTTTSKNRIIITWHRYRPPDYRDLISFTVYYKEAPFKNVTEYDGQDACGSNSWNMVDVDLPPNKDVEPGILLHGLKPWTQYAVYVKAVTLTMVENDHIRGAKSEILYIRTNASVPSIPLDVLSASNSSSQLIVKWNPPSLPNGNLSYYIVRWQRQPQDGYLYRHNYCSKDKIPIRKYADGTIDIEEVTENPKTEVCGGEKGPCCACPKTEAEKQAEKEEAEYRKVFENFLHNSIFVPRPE
T1 sequence (P08069 741-1367, chain 2 of 2): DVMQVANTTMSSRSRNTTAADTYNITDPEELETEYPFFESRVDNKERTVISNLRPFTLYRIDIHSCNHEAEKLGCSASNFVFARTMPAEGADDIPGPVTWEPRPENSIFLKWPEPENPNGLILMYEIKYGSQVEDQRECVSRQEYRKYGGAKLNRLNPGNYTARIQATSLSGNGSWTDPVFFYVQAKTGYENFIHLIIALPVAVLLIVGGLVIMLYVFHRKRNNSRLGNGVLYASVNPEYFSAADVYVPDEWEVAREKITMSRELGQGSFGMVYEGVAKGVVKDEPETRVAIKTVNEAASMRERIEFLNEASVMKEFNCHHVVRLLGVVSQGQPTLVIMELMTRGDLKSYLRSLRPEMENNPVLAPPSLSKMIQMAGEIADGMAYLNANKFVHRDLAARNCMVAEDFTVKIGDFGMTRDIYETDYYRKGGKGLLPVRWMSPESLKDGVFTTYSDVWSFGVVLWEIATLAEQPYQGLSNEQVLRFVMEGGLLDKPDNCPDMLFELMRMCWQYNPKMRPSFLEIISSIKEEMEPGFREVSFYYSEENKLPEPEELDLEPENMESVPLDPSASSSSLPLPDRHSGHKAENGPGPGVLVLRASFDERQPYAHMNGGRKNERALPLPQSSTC

B1: E-cadherin (CDH1) (other)
chain: DWVIPPISCPENEKGPFPKNLVQIKSNKDKEGKVFYSITGQGADTPPVGVFIIERETGWLKVTEPLDRERIATYTLFSHAVSSNGNAVEDPMEILITVTDQNDNKPEFTQEVFKGSVMEGALPGTSVMEVTATDADDDVNTYNAAIAYTILSQDPELPDKNMFTINRNTGVISVVTTGLDRESFPTYTLVVQAADLQGEGLSTTATAVITVTDTNDNPPIFNPTTYKGQVPENEANVVITTLKVTDADAPNTPAWEAVYTILNDDGGQFVVTTNPVNNDGILKTAKGLDFEAKQQYILHVAVTNVVPFEVSLTTSTATVTVDVLDVNEAPIFVPPEKRVEVSEDFGVGQEITSYTAQEPDTFMEQKITYRIWRDTANWLEINPDTGAISTRAELDREDFEHVKNSTYTALIIATDNGSPVATGTGTLLLILSDVNDNAPIPEPRTIFFCERNPKPQVINIIDADLPPNTSPFTAELTHGASANWTIQYNDPTQESIILKPKMALEVGDYKINLKLMDNQNKDQVTTLEVSVCDCEGAAGVCRKAQPVEAGLQIPAILGILGGILALLILILLLLLFLRRRAVVKEPLLPPEDDTRDNVYYYDEEGGGEEDQDFDLSQLHRGLDARPEVTRNDVAPTLMSVPRYLPRPANPDEIGNFIDENLKAADTDPTAPPYDSLLVFDYEGSGSEAASLSSLNSSESDKDQDYDYLNEWGNRFKKLADMYGGGEDD
notes: Endogenous E-cadherin in MCF-7 and T47D breast cancer cells; also called epithelial cadherin; CD324
binding result: binds
